Laboratory results reported in patent publication US20200325236A1 (REYOUNG SUZHOU BIOLOGY SCIENCE AND TECHNOLOGY, published 2020).

T1: human OX-40 protein (human, UniProt P43489 29-214, limits assumed)
T1 construct: Homologous family member used as the specificity control
T1 sequence (looked up): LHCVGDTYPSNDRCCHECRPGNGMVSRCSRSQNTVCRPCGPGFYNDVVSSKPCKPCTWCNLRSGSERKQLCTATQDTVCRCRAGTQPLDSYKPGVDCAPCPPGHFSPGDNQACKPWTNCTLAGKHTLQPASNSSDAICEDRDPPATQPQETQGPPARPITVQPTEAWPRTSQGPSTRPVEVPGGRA


Tests used:
human 4-1BB protein [1] = target: T2, human 4-1BB protein (human, UniProt Q07011 24-186, limits assumed); experiment: ELISA of binding activity before and after humanization; the coated antigen is not named there, taken as 4-1BB from the legend and axis
T2 construct: Coating protein in the ELISAs of Embodiments 4 and 5; also called h4-1BB

human 4-1BB protein [2] = target: T2, human 4-1BB protein; experiment: ELISA, human 4-1BB coated at 1 ug/mL, HRP goat-anti-human IgG detection
Method: (§1) The cross-reactive activity of the antibody with cynomolgus monkey 4-1BB molecules is determined by ELISA. The ELISA comprises steps of coating the human 4-1BB or cynomolgus monkey 4-1BB (1 μg/mL) with the ELISA plate, incubating overnight at 4 DEG C.; washing three times with PBST (0.1% Tween 20), blocking with 3% BSA for 1 h; washing three times, adding the purified anti-human 4-1BB antibody prepared in the embodiment 2 and incubating for 1 h; washing three times and adding horse radish peroxidase (HRP) labeled goat-anti-human IgG (1:2000 dilution) and incubating for 1 h; washing three times, then adding the substrate solution (TMB) and developing the color at room temperature in the dark; and finally, adding the stop solution (2N H₂SO₄) and reading the optical density (OD) value at 450 nm.

[3] = target: T3, human 4-1BB-Fc fusion protein (human, UniProt Q07011 24-186); experiment: SPR, Biacore T200, h4-1BB-Fc amine-coupled to chip, antibody 0.3125-5.0 ug/mL as analyte
T3 construct: Antigen amine-coupled to the Biacore chip; also called h4-1BB-Fc fusion protein; h4-1BB; not shown: Fc part
Method: Affinity of the antibody: determining binding kinetics of the purified antibody which is prepared in the embodiment 2 and the h4-1BB by using BIAcore T200; coupling 1 mg/mL antigen (h4-1BB-Fc fusion protein) to the surface of a CMS chip by using an amino coupling method, binding at 30 μL/min for 300 s when the concentration of the antibody is within 0.3125-5.0 μg/mL and then dissociating for 300 s; and analyzing data recorded by the Biacore T200 by using Biacore T200 Evaluation Software, wherein analysis results are as shown in Table 1.

human OX-40 protein = target: T1, human OX-40 protein; experiment: ELISA, plate coated with human OX-40 protein (1 ug/mL), HRP goat anti-human IgG, OD 450 nm
[4] = target: cynomolgus monkey 4-1BB protein (cynomolgus monkey); experiment: ELISA, cynomolgus monkey 4-1BB coated at 1 ug/mL, HRP goat-anti-human IgG detection
Method: as §1

human 4-1BB protein [5] = target: T2, human 4-1BB protein; experiment: ELISA, plate coated with human 4-1BB protein (1 ug/mL), HRP goat anti-human IgG, OD 450 nm

| Binder | EC50 (read off the curve) (human 4-1BB protein [1]) [ng/mL] | EC50 (human 4-1BB protein [2]) [nM] | Kd [3] [nM] | koff [3] [s⁻¹] | kon [3] [M⁻¹ s⁻¹] | binding result (human OX-40 protein) | EC50 [4] [nM] | EC50 (read off the curve) (human 4-1BB protein [5]) [µg/mL] |
| --- | --- | --- | --- | --- | --- | --- | --- | --- |
| ab1 chimeric antibody (anti-human 4-1BB antibody ab1) (antibody, human IgG1, V domains shown, also called anti-h4-1BB chimeric antibody; anti-h4-1BB monoclonal antibody) VH: QVQLQQSGAELVRPGTSVKISCKASGYAFTNYWLGWVKQRPGHGLEWIGDIYPGNGNSYYNEKFKGRATLTADKSSSTVYMQLSSLTSEDSVVYFCTRSSSYYRDVMDYWGQGTSVTVSS VL: DIQMTQSPASLSASVGETVTITCRASENIYSYLVWYQQKQGKSPQLLVYNAKTLAEGVSSRFSGSGSGTQFSLKINSLQPEDFGSYYCQHHYGTPLTFGAGTKLELKR | ~90 | 0.67 | 0.0934 | 1.37e-05 | 146000 | no binding | 2.67 | ~0.1 |
| Humanized 4-1BB antibody (antibody, V domains shown, ab1 after humanization by template replacement with back mutations; also called humanized anti-human 4-1BB antibody; ab1 humanized antibody) VH: QVQLVQSGAEVKKPGASVKVSCKASGYAFTNYWLGWVRQAPGHGLEWMGDIYPGNGNSYYAQKFQGRVTMTRDKSSSTVYMELSSLRSEDTAVYFCTRSSSYYRDVMDYWGQGTLVTVSS VL: DIQLTQSPSFLSASVGDRVTITCRASENIYSYLVWYQQKPGKAPKLLIYNAKTLAEGVPSRFSGSGSGTEFTLTISSLQPEDFATYYCQHHYGTPLTFGAGTKLEIKR | ~50 |  |  |  |  |  |  |  |
